Measurements as given in patent US20170056486A1.

molecular target: HLA-A*24 (human); experiment: UV-exchange ELISA (anti-b2m); yield 50%-75%

Peptide exchange yield, 50 to 75%:
IFGIFPNQF, KYIFQLNEI, NYITGKGDVF, SYNGHLTIWF, VYEKNGYIYF, GYNPNRVFF, KYFPYLVVI, GYKTFFNEF, IYNFVESKL, VYPVVLNQI, LYSELTETL, AYIPTPIYF, VYVQILQKL, IYSFHTLSF, RYVEGIVSL, PYFFANQEF, VYPFENFEF, VYALKVRTI, NYYERIHAL, IYLSDLTYI, EYFTPLLSGQF, LYSDAFKFIVF, SYLKAVFNL, VYRVYVTTF, LYLAFPLAF, LYSPVPFTL, HYVPATKVF, PYLVVIHTL, NYIPVKNGKQF, VYIESRIGTSTSF, KYLQVVGMF, LYLENNAQTQF, PYLQDVPRI, IYEETRGVL, TYPDGTYTGRIF, AYIKGGWIL, VYPPYLNYL, NYEDHFPLL, SYLNHLNNL, TYIPVGLGRLL, VFIHHLPQF, FYVNVKEQF, RYLNKSFVL, KYPDIVQQF, LYSELNKWSF, EYQARIPEF, EYLSTCSKL, RYSTFSEIF, KYLEDMKTYF, VFSRDFGLLVF, QYFTGNPLF, VYQSLSNSL, RYLEAALRL, KYLNSVQYI, FYINGQYQF, IYPEWPVVFF, RYGFYYVEF, RYGDGGSSF, VFPRLHNVLF, VYFKAGLDVF, SYPKIIEEF, IYNETITDLL, EYLDRIGQLFF, IYNETVRDLL, RYGLPAAWSTF, NYSSAVQKF, KYLMELTLI, DYIPASGFALF
